Measurements reported in paper PMC7140980.
Like-named read-outs stand apart in the source and are kept apart here.

What was measured:
Experiment in all cases: transient-state stopped-flow spectrofluorometry
[1] = target: L47fUAA GCK (human pancreatic glucokinase with L-(7-hydroxycoumarin-4-yl)ethylglycine in place of Leu47) (human) (UniProt P35557)
[2] = target: L47fUAA GCK (human pancreatic glucokinase with L-(7-hydroxycoumarin-4-yl)ethylglycine in place of Leu47) (human) (UniProt P35557); remark: listed apart in the source
[3] = target: L47fUAA GCK (human pancreatic glucokinase with L-(7-hydroxycoumarin-4-yl)ethylglycine in place of Leu47) (human) (UniProt P35557); remark: listed apart in the source

K2 (step 2, equilibrium constant of isomerisation) [1]: 0.72
Kd [1]: 123 nM
Kd,intrinsic (step 1, encounter complex) [1]: 210 nM
k1 (step 1, formation of the encounter complex) [1]: 170000 M⁻¹ s⁻¹
k−1 (step 1, dissociation of the encounter complex) [1]: 0.036 s⁻¹
k−2 (step 2, isomerisation reverse) [1]: 0.36 s⁻¹
K2 (step 2, equilibrium constant of isomerisation) [2]: 0.51
Kd [2]: 21000 nM
Kd,intrinsic (step 1, encounter complex) [2]: 32000 nM
k1 (step 1, formation of the encounter complex) [2]: 64000 M⁻¹ s⁻¹
k−1 (step 1, dissociation of the encounter complex) [2]: 2.06 s⁻¹
k−2 (step 2, isomerisation reverse) [2]: 0.21 s⁻¹
Kd [3]: 124 nM
Substance: glucokinase regulatory protein (GKRP) (from UniProt Q14397 1-625) (natural protein)
